T1: recombinant soluble human TREM2 protein (human TREM2 ECD-FlagHis) (human, UniProt Q9NZC2 19-174)
T1 sequence: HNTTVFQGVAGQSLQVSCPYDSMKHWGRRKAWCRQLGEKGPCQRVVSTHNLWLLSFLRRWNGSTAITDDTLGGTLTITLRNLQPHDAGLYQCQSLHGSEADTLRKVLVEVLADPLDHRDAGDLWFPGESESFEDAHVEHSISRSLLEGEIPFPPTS

T2: soluble human TREM2 protein (TREM2 ECD-huIgG1 Fc fusion protein) (human, UniProt Q9NZC2 19-174, biotinylated)
T2 construct: also called biotinylated soluble human TREM2 protein
T2 sequence: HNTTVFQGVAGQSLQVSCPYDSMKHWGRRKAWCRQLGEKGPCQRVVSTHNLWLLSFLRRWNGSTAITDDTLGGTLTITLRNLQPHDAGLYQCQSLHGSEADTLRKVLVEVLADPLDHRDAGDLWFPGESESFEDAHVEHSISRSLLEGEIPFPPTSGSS


Assays:
[1] = target: T1, recombinant soluble human TREM2 protein …; assay: Octet BLI binning; competitor: load Ab 26A10
Method: (§1) Each of sixteen different anti-TREM2 antibodies produced from hybridomas were quantitated and loaded onto one of the anti-human Fc sensors at 5 μg/mL for 2 minutes (“Load Antibody”). The sensor was then blocked with 100 μg/mL of an irrelevant human IgG2 antibody for 5 minutes. […] Next, each of the sixteen different anti-TREM2 antibodies (“Sandwich Antibody”) was added to the sensor at 5 μg/mL and allowed to bind for 5 minutes. All assay buffers contained 10 mM Tris (pH 7.6), 0.1% Triton X-100, 150 mM NaCl, 1 mM CaCl₂, and 1 mg/mL BSA. The assay was conducted at 25° C. Experimental kinetic results were fit to a 1:1 binding model.
(§2) However, if addition of the sandwich antibody produces a binding event, then the sandwich antibody binds to a different epitope on human TREM2 than the load antibody and the two antibodies are categorized into different epitope bins.

[2] = target: T2, soluble human TREM2 protein (TREM2 …); assay: ELISA, hybridoma supernatant on captured biotinylated TREM2 ECD-Fc
[3] = target: T1, recombinant soluble human TREM2 protein …; assay: Octet BLI binning; competitor: load Ab 26F2
Method in brief: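 Sixteen hybridoma-derived anti-TREM2 antibodies were cross-tested pairwise as load and sandwich antibodies on anti-human Fc biosensors at 25° C. Assay buffer held 10 mM Tris pH 7.6, 150 mM NaCl, 1 mM CaCl₂, 0.1% Triton X-100 and 1 mg/mL BSA.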

[4] = target: T1, recombinant soluble human TREM2 protein …; assay: Octet BLI binning; competitor: load Ab 4C5
Method: as §1, §2

[5] = target: T1, recombinant soluble human TREM2 protein …; assay: Octet BLI binning; competitor: load Ab 4G10
Method: as §1, §2

| Binder | sandwich binding signal [1] | OD 450 [2] [OD450] | sandwich binding signal [3] | sandwich binding signal [4] | sandwich binding signal [5] |
| --- | --- | --- | --- | --- | --- |
| 5E3 (antibody, human IgG2, V domains shown, human IgG2 from hybridoma) VH: QVQLVQSGAEVKKPGASVKVSCKASGYTFTGYYIHWVRQAPGLGLEWMGWINPYSGGTTSAQKFQGRVTMTRDTSISSAYMELSRLRSDDTAVYYCARDGGYLALYGTDVWGQGTTVTVSS VL: DIQMTQSPSSLSASVGDRVTITCRASQGISNYLAWFQQKPGKAPKSLIYAASSLQSGVPSKFSGSGSGTDFTLTISSLQPEDFATYYCQQYSTYPFTFGPGTKVDIK | -0.052 | 3.88 | -0.045 | – | – |
| 10E3 (antibody, human IgG2, V domains shown, human IgG2 from hybridoma) VH: EVQLVQSGAEVKKPGESLMISCKGSGYSFTNYWIGWVRQMPGKGLEWMGIIYPGDSDTRYSPSFQGQVTISADKSISTAYLQWSSLKASDTAMYFCARRRQGIWGDALDIWGQGTLVTVSS VL: EIVMTQSPATLSVSPGERATLSCRASQSVSSNLAWFQQKPGQAPRLLIYGASTRATGIPARFSVSGSGTEFTLTISSLQSEDFAFYYCLQDNNWPPTFGPGTKVDIK | 0.367 | 0.55 | 0.354 | 0 | -0.008 |
| 13E7 (antibody, human IgG2, V domains shown, human IgG2 from hybridoma) VH: EVQLVQSGAEVKKPGESLMISCKGSGYSFTSYWIGWVRQMPGKGLEWMGIIYPGDSDTRYSPSFQGQVTISADKSISTAYLQWSSLKASDTAMYFCARRRQGIWGDALDFWGQGTLVTVSS VL: EIVMTQSPATLSVSPGERATLSCRASQSVSSNLAWFQQKPGQAPRLLIYGASTRATGIPARFSVSGSGTEFTLTISSLQSEDFAVYYCLQDNNWPPTFGPGTKVDIK | 0.371 | 0.73 | 0.363 | – | – |
| 6E7 (antibody, human IgG2, V domains shown, human IgG2 from hybridoma) VH: EVQLVQSGAEVKKPGESLKISCKGSGYSFTSYWIAWVRQMPGKGLEWMGIIYPGDSDTRYSPSFQGQVTISADKSISTAYLQWSSLKASDTAMYFCARQRTFYYDSSDYFDYWGQGTLVTVSS VL: DIQMTQSPSSVSASVGDRVTITCRASQGISSWLAWYQQKPGKAPKLLIYAASSLQNGVPSRFSGSGSGTDFTLTISSLQPEDFATYFCQQADSFPRTFGQGTKLEIK | 0.475 | 3.17 | 0.506 | – | – |

— patent US20220204611A1 (Amgen, published 2022)
